B1: PLAGL1 (parent)
chain: LELGSTEVLLDHLKAHAEEKPPSG
B2: LOXL2 (parent)
chain: HISSCKLGPQVSLDPMKNVTCENG

Variants of: B1
Assay: protein stability index of a GFP-peptide fusion (GPS, HEK-293T) (PSI 1-6); higher = more stable
Conditions: c terminus: a fixed tail appended
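Further: lentivirally expressed fusions sorted by FACS into six bins by GFP to DsRed ratio, PSI derived from sequencing read proportions per bin multiplied by bin number.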

Variant | protein stability index
S23W | 3.22
S23T | 4.17
S23Y | 3.79
S23R | 4.4
S23V | 4.34
G24H | 4.47
G24T | 4.18
G24Q | 4.63
G24L | 3.51
G24P | 4.9
G24A | 4.66
G24S | 4.46
G24Y | 3.7
G24K | 4.34
G24R | 4.21
G24E | 4.68
G24D | 4.91
G24C | 3.97
G24V | 3.88
G24W | 3.23
G24I | 4.07
G24M | 3.61
G24N | 4.54
G24F | 3.21

Variants of: B2
Assay: as above
Conditions: c terminus: a fixed tail appended

Variant | protein stability index
K6Y | 3.44
K6G | 3.97
K6M | 4.15
K6V | 3.95
K6F | 2.98
K6I | 3.57
L7R | 4.15
L7H | 4.19
L7K | 4.33
L7E | 4.79
L7M | 4.31
L7G | 4.76
D14L | 3.22
D14V | 3.69
D14C | 2.95
D14K | 3.5
D14F | 2.46
D14H | 3.61
S4C | 3.78
S4W | 2.32
S4T | 3.65
I2F | 3.58
I2L | 4.24
I2K | 3.4

Variant | protein stability index
I2D | 4.58
I2R | 4.11
I2E | 4.48
M16C | 3.94
M16E | 5.1
M16V | 4.34
M16P | 4.16
M16T | 4.04
N18Q | 4.2
N18Y | 3.08
N18F | 2.82
N18M | 3.42
N18R | 3.44
N18G | 3.81
N18K | 4.19
G24M | 3.52
G24R | 3.58
G24I | 3.39
G24N | 4.12
G8K | 3.61
G8M | 3.95
G8T | 4.45
G8I | 3.86
G8A | 3.77

Variant | protein stability index
G8S | 3.66
G8P | 4.01
G8V | 3.62
T20A | 3.99
T20V | 3.83
T20E | 4.16
T20P | 4.26
T20I | 3.84
T20C | 3.37
T20Q | 4.02
T20S | 4.08
T20R | 3.88
P9G | 3.51
P9F | 2.65
P9K | 4.25
P9N | 3.71
P9D | 4.05
P9L | 2.84
C21F | 3.65
C21N | 4.14
C21Y | 3.36
C21M | 3.61
P15Y | 2.84
P15S | 3.94

Variant | protein stability index
P15M | 3.74
P15H | 4.02
P15R | 3.82
P15G | 3.93
P15K | 3.93
P15E | 4.64
P15Q | 4.03
S3F | 2.94
S3W | 3.14
S3V | 3.12
S3K | 4.01
S3M | 3.3
S3R | 3.48
S3Q | 3.92
H1Q | 3.95
H1I | 2.63
H1R | 3.95
H1Y | 2.46
H1V | 3.72
H1G | 4.46
H1K | 4.22
C5F | 3.83
C5K | 4.53
C5P | 4.01

Variant | protein stability index
E22Q | 3.47
E22D | 3.82
E22I | 2.92
E22A | 3.51
V11D | 4.35
V11C | 4.27
V11N | 4.33
V19T | 3.71
V19G | 4.15
V19D | 4.67
V19C | 3.86
K17M | 3.22
K17T | 4.19
K17G | 3.45
K17Y | 3.44
K17W | 3.05
K17R | 3.55
K17H | 4.03
S12R | 3.48
S12M | 3.57
S12K | 3.9
S12G | 3.93
S12L | 3.31
S12H | 4

Variant | protein stability index
S12W | 2.47
S12Q | 4.44
S12P | 4.18
S12F | 3.27
N23W | 2.21
N23D | 4.38
N23C | 4.01
N23L | 3.1
N23H | 3.61
N23Q | 4.08
L13S | 4.45
L13T | 4.61
L13I | 4.1
L13R | 3.8
Q10R | 3.85
Q10K | 3.77
Q10W | 2.08
Q10P | 3.68
Q10M | 3.37
Q10I | 3.54
Q10D | 4.58
Q10Y | 3.07
Q10L | 3.32
